Results from the supplement of paper PMC9112550, “Optimization of the antimicrobial peptide Bac7 by deep mutational scanning” (BMC Biology, 2022).

What follows are sequences tested on Escherichia coli TOP10 (assay: shrunken log2 fold change of peptide-encoding DNA abundance (4.5 h post-induction vs induction); higher = less antimicrobial activity (less host growth inhibition)). Conditions: time post-induction: 4.5 h; library: site-saturation at positions 5, 18, 19, 20.
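Further: peptides expressed intracellularly from a pBAD plasmid library in pooled LB shake-flask culture, induced with 0.3% L-arabinose, DNA abundance read by NGS, three biological replicates, DESeq2 with apeglm shrinkage.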

Row | Sequence | shrunken log2 fold change
1 | RRIRMRPPRLPRPRPRPLSDPRP | 0.861
2 | RRIRQRPPRLPRPRPRPGLFPRP | -0.176
3 | RRIRMRPPRLPRPRPRPKDWPRP | 1.43
4 | RRIRNRPPRLPRPRPRPWMYPRP | 0.0204
5 | RRIRYRPPRLPRPRPRPQHPPRP | -0.595
6 | RRIRYRPPRLPRPRPRPVLRPRP | 0.124
7 | RRIRTRPPRLPRPRPRPPMVPRP | 0.152
8 | RRIRPRPPRLPRPRPRPASVPRP | 0.185
9 | RRIRVRPPRLPRPRPRPHTNPRP | -0.471
10 | RRIRNRPPRLPRPRPRPMGIPRP | -0.454
11 | RRIRVRPPRLPRPRPRPLWRPRP | 0.293
12 | RRIRDRPPRLPRPRPRPEKNPRP | 0.489
13 | RRIRERPPRLPRPRPRPLNQPRP | -0.547
14 | RRIRTRPPRLPRPRPRPSWVPRP | -0.165
15 | RRIRVRPPRLPRPRPRPLLSPRP | -0.08
16 | RRIRDRPPRLPRPRPRPRQLPRP | 0.185
17 | RRIRERPPRLPRPRPRPKEAPRP | 0.324
18 | RRIRVRPPRLPRPRPRPVLIPRP | -0.186
19 | RRIRQRPPRLPRPRPRPRMNPRP | -0.15
20 | RRIRRRPPRLPRPRPRPFQVPRP | -0.0462
21 | RRIRHRPPRLPRPRPRPSLWPRP | 0.257
22 | RRIRHRPPRLPRPRPRPVTRPRP | -0.00217
23 | RRIRCRPPRLPRPRPRPDLQPRP | -0.00569
24 | RRIRFRPPRLPRPRPRPMNGPRP | -0.0885
25 | RRIRQRPPRLPRPRPRPDGEPRP | 0.117

Row | Sequence | shrunken log2 fold change
26 | RRIRYRPPRLPRPRPRPAIFPRP | -0.0382
27 | RRIRTRPPRLPRPRPRPDWWPRP | 0.016
28 | RRIRRRPPRLPRPRPRPDEMPRP | 0.753
29 | RRIRARPPRLPRPRPRPHMRPRP | 0.669
30 | RRIRKRPPRLPRPRPRPNFLPRP | -0.185
31 | RRIRARPPRLPRPRPRPAMCPRP | 0.303
32 | RRIRHRPPRLPRPRPRPFWNPRP | 0.034
33 | RRIRCRPPRLPRPRPRPAWCPRP | 0.128
34 | RRIRVRPPRLPRPRPRPQRPPRP | 0.306
35 | RRIRNRPPRLPRPRPRPNQDPRP | -0.251
36 | RRIRRRPPRLPRPRPRPVGAPRP | 0.592
37 | RRIRWRPPRLPRPRPRPPITPRP | -0.173
38 | RRIRARPPRLPRPRPRPVGKPRP | 0.196
39 | RRIRGRPPRLPRPRPRPSPNPRP | 0.244
40 | RRIRLRPPRLPRPRPRPLMSPRP | -0.0608
41 | RRIRIRPPRLPRPRPRPKPNPRP | -0.105
42 | RRIRCRPPRLPRPRPRPYSFPRP | -0.414
43 | RRIRKRPPRLPRPRPRPQRHPRP | 1.73
44 | RRIRSRPPRLPRPRPRPNWRPRP | 0.266
45 | RRIRYRPPRLPRPRPRPQQWPRP | 0.155
46 | RRIRCRPPRLPRPRPRPCQCPRP | -0.208
47 | RRIRYRPPRLPRPRPRPYPDPRP | -0.0152
48 | RRIRPRPPRLPRPRPRPPAHPRP | 0.466
49 | RRIRLRPPRLPRPRPRPEKRPRP | -0.148
50 | RRIRCRPPRLPRPRPRPRPFPRP | 0.176

Row | Sequence | shrunken log2 fold change
51 | RRIRHRPPRLPRPRPRPVAVPRP | -0.0993
52 | RRIRDRPPRLPRPRPRPDPRPRP | 0.0663
53 | RRIRWRPPRLPRPRPRPPCCPRP | 0.198
54 | RRIRQRPPRLPRPRPRPYQSPRP | -0.176
55 | RRIRPRPPRLPRPRPRPGVCPRP | 0.428
56 | RRIRCRPPRLPRPRPRPFMKPRP | -0.696
57 | RRIRYRPPRLPRPRPRPYAEPRP | -0.193
58 | RRIRNRPPRLPRPRPRPTDFPRP | -0.164
59 | RRIRGRPPRLPRPRPRPQSMPRP | 0.276
60 | RRIRSRPPRLPRPRPRPFEQPRP | -0.0212
61 | RRIRERPPRLPRPRPRPWKGPRP | -0.0443
62 | RRIRCRPPRLPRPRPRPQAGPRP | 0.109
63 | RRIRKRPPRLPRPRPRPCCPPRP | -0.044
64 | RRIRNRPPRLPRPRPRPYLAPRP | -0.327
65 | RRIRSRPPRLPRPRPRPWFLPRP | -0.565
66 | RRIRYRPPRLPRPRPRPDSKPRP | -0.352
67 | RRIRQRPPRLPRPRPRPYLKPRP | 0.00123
68 | RRIRHRPPRLPRPRPRPEDMPRP | -0.208
69 | RRIRPRPPRLPRPRPRPNDLPRP | -0.111
70 | RRIRLRPPRLPRPRPRPNYQPRP | -0.773
71 | RRIRYRPPRLPRPRPRPVMGPRP | -0.0133
72 | RRIRMRPPRLPRPRPRPDLWPRP | 2.21
73 | RRIRARPPRLPRPRPRPVHHPRP | -0.0524
74 | RRIRERPPRLPRPRPRPICQPRP | 0.00158
75 | RRIRYRPPRLPRPRPRPLQKPRP | -0.0364
